{
  "source": "paper doi:10.1101/2023.05.26.542392",
  "biological_target": "Full-length SARS-Cov-2-Nucleocapsid (FLN), WT (SARS-CoV-2)",
  "experiment": "AUC",
  "data": [
    {"substance": "Full-length SARS-Cov-2-Nucleocapsid (FLN), WT (natural protein)", "values": [
      {"measurement": "stoichiometry N", "result": 2}
    ]}
  ]
}
